Test results published in PMC8565734, “Construction of ferritin hydrogels utilizing subunit–subunit interactions” (PLoS ONE, 2021).

Molecular target: the molecule itself
Assay: SEC; Superdex 200 increase 10/300 GL, 50 mM potassium phosphate buffer, pH 7.0, 4°C; solution obtained after heating the apoferritin hydrogel at 90°C for 30 min; sizes estimated from a standard curve of standard proteins

B1: horse L apoferritin without eight N-terminal residues (Fer8) (domain or fragment, UniProt P02791 9-175, looked up)
chain: YSTEVEAAVNRLVNLYLRASYTYLSLGFYFDRDDVALEGVCHFFRELAEEKREGAERLLKMQNQRGGRALFQDLQKPSQDEWGTTLDAMKAAIVLEKSLNQALLDLHALGSAQADPHLCDFLESHFLDEEVKLIKKMGDHLTNIQRLVGSQAGLGEYLFERLTLKHD
notes: horse L ferritin (ferritin light chain), printed as 'without eight N-terminal residues'; theoretical [Fer8 subunit + H+] = 19148; The limit 9-end follows from 'without eight N-terminal residues'; also called recombinant horse apoferritin; Fer8 subunit; source: E. coli Nova blue cells (plasmid pKIT8), purified (heat 60°C, Q Sepharose, HiTrap Q HP, SEC); gelled by acid denaturation and …
stoichiometry N: 24
